The values that follow come from patent US20200087383A1 (NATIONAL CHENG KUNG UNIVERSITY, published 2020).

In test [1] the target is bovine serum albumin (BSA) (bovine, UniProt P02769 25-607). The experiment in a line: western blotting. A general note: A western blot detects proteins with antibodies after separation by electrophoresis.
Test [2] addresses T1, antigen comprising the amino acid sequence YKDWSEWGKAC (SEQ ID NO: 12).
T1 construct: Any carrier or conjugate is not described; also called screening antigen
T1 peptide: YKDWSEWGKAC
In words: ELISA of hybridoma supernatants on the antigen comprising SEQ ID NO: 12. In general terms: An ELISA detects its analyte on a solid surface through an enzyme-linked reagent.

bovine serum albumin (BSA), sequence (P02769 25-607 limits assumed): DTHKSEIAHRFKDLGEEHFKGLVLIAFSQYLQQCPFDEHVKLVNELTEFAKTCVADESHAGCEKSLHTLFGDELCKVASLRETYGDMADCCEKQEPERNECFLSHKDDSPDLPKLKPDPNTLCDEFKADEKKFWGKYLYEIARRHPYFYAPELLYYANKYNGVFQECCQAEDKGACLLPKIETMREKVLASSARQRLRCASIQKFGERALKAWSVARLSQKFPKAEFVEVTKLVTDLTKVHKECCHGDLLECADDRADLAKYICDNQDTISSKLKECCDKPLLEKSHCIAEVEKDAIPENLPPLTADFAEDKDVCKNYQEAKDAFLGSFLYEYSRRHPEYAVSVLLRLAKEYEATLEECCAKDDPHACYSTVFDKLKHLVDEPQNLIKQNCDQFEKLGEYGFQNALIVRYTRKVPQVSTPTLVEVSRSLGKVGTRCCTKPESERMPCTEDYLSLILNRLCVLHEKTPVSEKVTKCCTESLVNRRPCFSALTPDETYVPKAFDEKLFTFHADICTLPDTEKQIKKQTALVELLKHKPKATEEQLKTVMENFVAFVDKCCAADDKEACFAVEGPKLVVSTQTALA

B1: anti-DENV NS1 monoclonal antibody mAb 33D2 (antibody, V domains shown)
VH: DVQLQESGPGLVKPSQSLSLTCTVTGYSITSDYAWNWIRQFPGNKLEWMGFISYSGSARYNPSLISRTSITRDTSKNQFFLHLNSVTTEDTAIYYCARVERLGYFDVWGAGTTVTVSS
VL: DIVLTQSPASLAVSLGQRASISCKASQSVDYDGDSYMHWYQQKPGQPFKLLIYAASNLESGIPARFSGSGSGTVFTLNIHPVEEEDAATYYCQQSNEDPTFGGGTRLEIKR
notes: also called anti-NS1 mAb 33D2; anti-DENV antibody 33D2
Turning to B1, the binding result in test [1] is “no binding”; in test [2], “binds”.
